Measurements as given in patent US20110118447A1.

What was measured:
[1] = target: binding partner of C5A (XPA23); experiment: Biacore
[2] = target: binding partner (antigen) of C5A (XPA23); experiment: Biacore, K-off, fold vs original
[3] = target: binding partner of C5A (XPA23); experiment: Biacore, mutant vs original C5A (XPA23)

| Binder | fold difference in affinity vs original [1] | fold difference in affinity vs original [2] | fold affinity vs original [1] | fold difference in affinity in comparison to original [3] |
| --- | --- | --- | --- | --- |
| C5A (XPA23) VH D106G (antibody, V domains shown) VH: EVQLLESGGGLVQPGGSLRLSCAASGFTFSKYFMFWVRQAPGKGLEWVSVISPSGGMTRYADSVKGRFTISRDNSKNTLYLQMNSLRAEDTAVYYCARVGYGGNSGYWGQGTLVTVSS VL: DIQMTQSPSSVSASVGDRLTIICRASQDINRWLAWYQQTPGNAPKLLIHSATSLQSGVPSRFSGSGSGTDFTLTINSLQPEDFATYYCQQADSFPLTFGGGTKVEIK | 0.03 fold | 0.03 fold | – | – |
| C5A (XPA23) VH Y107V (antibody, V domains shown) VH: EVQLLESGGGLVQPGGSLRLSCAASGFTFSKYFMFWVRQAPGKGLEWVSVISPSGGMTRYADSVKGRFTISRDNSKNTLYLQMNSLRAEDTAVYYCARVGYGGNSDVWGQGTLVTVSS VL: DIQMTQSPSSVSASVGDRLTIICRASQDINRWLAWYQQTPGNAPKLLIHSATSLQSGVPSRFSGSGSGTDFTLTINSLQPEDFATYYCQQADSFPLTFGGGTKVEIK | 0.93 fold | 0.93 fold | – | – |
| C5A (XPA23) VH Y107L (antibody, V domains shown) VH: EVQLLESGGGLVQPGGSLRLSCAASGFTFSKYFMFWVRQAPGKGLEWVSVISPSGGMTRYADSVKGRFTISRDNSKNTLYLQMNSLRAEDTAVYYCARVGYGGNSDLWGQGTLVTVSS VL: DIQMTQSPSSVSASVGDRLTIICRASQDINRWLAWYQQTPGNAPKLLIHSATSLQSGVPSRFSGSGSGTDFTLTINSLQPEDFATYYCQQADSFPLTFGGGTKVEIK | 0.86 fold | 0.86 fold | – | – |
| C5A (XPA23) VH Y107W (antibody, V domains shown) VH: EVQLLESGGGLVQPGGSLRLSCAASGFTFSKYFMFWVRQAPGKGLEWVSVISPSGGMTRYADSVKGRFTISRDNSKNTLYLQMNSLRAEDTAVYYCARVGYGGNSDWWGQGTLVTVSS VL: DIQMTQSPSSVSASVGDRLTIICRASQDINRWLAWYQQTPGNAPKLLIHSATSLQSGVPSRFSGSGSGTDFTLTINSLQPEDFATYYCQQADSFPLTFGGGTKVEIK | – | 0.89 fold | 0.89 fold | – |
| C5A (XPA23) light chain variable region S53T (antibody, V domains shown) VH: EVQLLESGGGLVQPGGSLRLSCAASGFTFSKYFMFWVRQAPGKGLEWVSVISPSGGMTRYADSVKGRFTISRDNSKNTLYLQMNSLRAEDTAVYYCARVGYGGNSDYWGQGTLVTVSS VL: DIQMTQSPSSVSASVGDRLTIICRASQDINRWLAWYQQTPGNAPKLLIHSATTLQSGVPSRFSGSGSGTDFTLTINSLQPEDFATYYCQQADSFPLTFGGGTKVEIK | – | – | – | 0.95 fold |
| C5A (XPA23) VH Y107I (antibody, V domains shown) VH: EVQLLESGGGLVQPGGSLRLSCAASGFTFSKYFMFWVRQAPGKGLEWVSVISPSGGMTRYADSVKGRFTISRDNSKNTLYLQMNSLRAEDTAVYYCARVGYGGNSDIWGQGTLVTVSS VL: DIQMTQSPSSVSASVGDRLTIICRASQDINRWLAWYQQTPGNAPKLLIHSATSLQSGVPSRFSGSGSGTDFTLTINSLQPEDFATYYCQQADSFPLTFGGGTKVEIK | 0.96 fold | 0.96 fold | – | – |
| C5A (XPA23) light chain variable region S53L (antibody, V domains shown) VH: EVQLLESGGGLVQPGGSLRLSCAASGFTFSKYFMFWVRQAPGKGLEWVSVISPSGGMTRYADSVKGRFTISRDNSKNTLYLQMNSLRAEDTAVYYCARVGYGGNSDYWGQGTLVTVSS VL: DIQMTQSPSSVSASVGDRLTIICRASQDINRWLAWYQQTPGNAPKLLIHSATLLQSGVPSRFSGSGSGTDFTLTINSLQPEDFATYYCQQADSFPLTFGGGTKVEIK | – | – | – | 0.99 fold |
| C5A (XPA23) VH Y107A (antibody, V domains shown) VH: EVQLLESGGGLVQPGGSLRLSCAASGFTFSKYFMFWVRQAPGKGLEWVSVISPSGGMTRYADSVKGRFTISRDNSKNTLYLQMNSLRAEDTAVYYCARVGYGGNSDAWGQGTLVTVSS VL: DIQMTQSPSSVSASVGDRLTIICRASQDINRWLAWYQQTPGNAPKLLIHSATSLQSGVPSRFSGSGSGTDFTLTINSLQPEDFATYYCQQADSFPLTFGGGTKVEIK | 0.83 fold | 0.83 fold | – | – |
| C5A (XPA23) light chain variable region S53G (antibody, V domains shown) VH: EVQLLESGGGLVQPGGSLRLSCAASGFTFSKYFMFWVRQAPGKGLEWVSVISPSGGMTRYADSVKGRFTISRDNSKNTLYLQMNSLRAEDTAVYYCARVGYGGNSDYWGQGTLVTVSS VL: DIQMTQSPSSVSASVGDRLTIICRASQDINRWLAWYQQTPGNAPKLLIHSATGLQSGVPSRFSGSGSGTDFTLTINSLQPEDFATYYCQQADSFPLTFGGGTKVEIK | – | – | – | 1.03 fold |
| C5A (XPA23) light chain variable region S53V (antibody, V domains shown) VH: EVQLLESGGGLVQPGGSLRLSCAASGFTFSKYFMFWVRQAPGKGLEWVSVISPSGGMTRYADSVKGRFTISRDNSKNTLYLQMNSLRAEDTAVYYCARVGYGGNSDYWGQGTLVTVSS VL: DIQMTQSPSSVSASVGDRLTIICRASQDINRWLAWYQQTPGNAPKLLIHSATVLQSGVPSRFSGSGSGTDFTLTINSLQPEDFATYYCQQADSFPLTFGGGTKVEIK | – | – | – | 1.42 fold |
| C5A (XPA23) VH Y107F (antibody, V domains shown) VH: EVQLLESGGGLVQPGGSLRLSCAASGFTFSKYFMFWVRQAPGKGLEWVSVISPSGGMTRYADSVKGRFTISRDNSKNTLYLQMNSLRAEDTAVYYCARVGYGGNSDFWGQGTLVTVSS VL: DIQMTQSPSSVSASVGDRLTIICRASQDINRWLAWYQQTPGNAPKLLIHSATSLQSGVPSRFSGSGSGTDFTLTINSLQPEDFATYYCQQADSFPLTFGGGTKVEIK | – | 0.9 fold | 0.9 fold | – |
| C5A (XPA23) light chain variable region S53A (antibody, V domains shown) VH: EVQLLESGGGLVQPGGSLRLSCAASGFTFSKYFMFWVRQAPGKGLEWVSVISPSGGMTRYADSVKGRFTISRDNSKNTLYLQMNSLRAEDTAVYYCARVGYGGNSDYWGQGTLVTVSS VL: DIQMTQSPSSVSASVGDRLTIICRASQDINRWLAWYQQTPGNAPKLLIHSATALQSGVPSRFSGSGSGTDFTLTINSLQPEDFATYYCQQADSFPLTFGGGTKVEIK | – | – | – | 1.07 fold |
| C5A (XPA23) VH Y107P (antibody, V domains shown) VH: EVQLLESGGGLVQPGGSLRLSCAASGFTFSKYFMFWVRQAPGKGLEWVSVISPSGGMTRYADSVKGRFTISRDNSKNTLYLQMNSLRAEDTAVYYCARVGYGGNSDPWGQGTLVTVSS VL: DIQMTQSPSSVSASVGDRLTIICRASQDINRWLAWYQQTPGNAPKLLIHSATSLQSGVPSRFSGSGSGTDFTLTINSLQPEDFATYYCQQADSFPLTFGGGTKVEIK | 0.04 fold | 0.04 fold | – | – |
| C5A (XPA23) light chain variable region S53I (antibody, V domains shown) VH: EVQLLESGGGLVQPGGSLRLSCAASGFTFSKYFMFWVRQAPGKGLEWVSVISPSGGMTRYADSVKGRFTISRDNSKNTLYLQMNSLRAEDTAVYYCARVGYGGNSDYWGQGTLVTVSS VL: DIQMTQSPSSVSASVGDRLTIICRASQDINRWLAWYQQTPGNAPKLLIHSATILQSGVPSRFSGSGSGTDFTLTINSLQPEDFATYYCQQADSFPLTFGGGTKVEIK | – | – | – | 1.42 fold |
| C5A (XPA23) VH Y107G (antibody, V domains shown) VH: EVQLLESGGGLVQPGGSLRLSCAASGFTFSKYFMFWVRQAPGKGLEWVSVISPSGGMTRYADSVKGRFTISRDNSKNTLYLQMNSLRAEDTAVYYCARVGYGGNSDGWGQGTLVTVSS VL: DIQMTQSPSSVSASVGDRLTIICRASQDINRWLAWYQQTPGNAPKLLIHSATSLQSGVPSRFSGSGSGTDFTLTINSLQPEDFATYYCQQADSFPLTFGGGTKVEIK | 0.1 fold | 0.1 fold | – | – |
